Results from the supplement of paper PMC7125110.
± gives the standard error. This sample holds only a part of the variants without activity.

B1: glmS ribozyme (parent)
chain: AUAAAAGCGCCAGAACUACAGAAAUGUAGUUGACGAGGAGGAGGUUUAUCGAAUUUUCGGCGGAUGCCUCCAAA

Columns and labels:
Details in all cases: with glucosamine-6-phosphate
glucosamine-6-phosphate [1] = variants of: B1; assay: self-cleavage kobs at 160 uM GlcN6P; higher = faster cleavage; RNA array
Method in brief: (§1)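 Barcoded glmS ribozyme variants on sequenced MiSeq chips were transcribed in situ by E. coli RNA polymerase and tracked through a hybridised Cy3 probe at 37 °C. Glucosamine-6-phosphate (40 μM to 10 mM) in HEPES/KCl/Mg(OAc)2 buffer was flowed in, and tiles were imaged over ~14 h. Signals were normalised to baseline and to non-cleaving reference variants; per-tile medians were fit to one- or two-exponential decays to give kobs. kcat and KM came from weighted Michaelis–Menten fits across concentrations.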

glucosamine-6-phosphate [2] = variants of: B1; assay: self-cleavage kobs at 2500 uM GlcN6P; higher = faster cleavage; RNA array
Method in brief: as §1

glucosamine-6-phosphate [3] = variants of: B1; assay: self-cleavage kobs at 640 uM GlcN6P; higher = faster cleavage; RNA array
Method in brief: as §1

glucosamine-6-phosphate [4] = variants of: B1; assay: self-cleavage kobs at 10000 uM GlcN6P; higher = faster cleavage; RNA array
Method in brief: as §1

Row | Variant | self-cleavage kobs at 160 uM GlcN6P (glucosamine-6-phosphate [1]) [s⁻¹] | self-cleavage kobs at 2500 uM GlcN6P (glucosamine-6-phosphate [2]) [s⁻¹] | self-cleavage kobs at 640 uM GlcN6P (glucosamine-6-phosphate [3]) [s⁻¹] | self-cleavage kobs at 10000 uM GlcN6P (glucosamine-6-phosphate [4]) [s⁻¹]
1 | G35U G43U A53C C70A | < 1e-05 | – | – | –
2 | C34U U56C G66C | < 1e-05 | < 1e-05 | – | –
3 | A36G G41C A53U | < 1e-05 | – | < 1e-05 | –
4 | G35U A64U | < 1e-05 | < 1e-05 | < 1e-05 | < 1e-05
5 | G35A A48G G51C A64C | < 1e-05 | – | – | –
6 | C34U G35C | < 1e-05 | < 1e-05 | – | < 1e-05
7 | G35C U57G G59C | < 1e-05 | – | – | –
8 | G35C A36U C58U | < 1e-05 | < 1e-05 | – | –
9 | A36C G41C | < 1e-05 | < 1e-05 | < 1e-05 | < 1e-05
10 | G35U C50U | < 1e-05 | – | – | < 1e-05
11 | G35C U46C C50A | < 1e-05 | – | – | < 1e-05
12 | G35C A42U G43A A52U | < 1e-05 | < 1e-05 | < 1e-05 | –
13 | G35A A36U U55A | < 1e-05 | – | – | –
14 | A36C G37A U46A G66U | < 1e-05 | < 1e-05 | < 1e-05 | –
15 | A36U U65C | < 1e-05 | – | – | –
16 | G35A G43U U45C A53G G59A | < 1e-05 | – | < 1e-05 | –
17 | C34U C50G C68A | 9.29e-05 ± 2.9e-05 | 9.73e-05 ± 2.8e-05 | – | –
18 | A33G C67G C70A | 4.49e-05 ± 2.2e-05 | – | – | –
19 | G35C A39U U49G C50G | < 1e-05 | < 1e-05 | – | –
20 | A33G A53C G59A | < 1e-05 | < 1e-05 | – | < 1e-05
21 | G37A A39U U54C | 8.28e-05 ± 3.4e-05 | 0.000423 ± 6.7e-05 | 0.00016 ± 1.9e-05 | –
22 | C34G U56A G62A C67U | < 1e-05 | – | – | –
23 | G35A G41C | < 1e-05 | – | < 1e-05 | –
24 | A33C G59C C61G A64G | < 1e-05 | – | < 1e-05 | –
25 | A33U G35U A42U G44U | < 1e-05 | < 1e-05 | < 1e-05 | –
26 | A33C U45G U55C U57C A64U | < 1e-05 | < 1e-05 | < 1e-05 | –

Row | Variant | self-cleavage kobs at 160 uM GlcN6P (glucosamine-6-phosphate [1]) [s⁻¹] | self-cleavage kobs at 2500 uM GlcN6P (glucosamine-6-phosphate [2]) [s⁻¹] | self-cleavage kobs at 640 uM GlcN6P (glucosamine-6-phosphate [3]) [s⁻¹] | self-cleavage kobs at 10000 uM GlcN6P (glucosamine-6-phosphate [4]) [s⁻¹]
27 | A33C G59A | < 1e-05 | < 1e-05 | < 1e-05 | –
28 | A33G U47G A48C G51C | < 1e-05 | – | – | –
29 | A36U A64G C68G | 7.51e-05 ± 3e-05 | – | – | –
30 | A33U U47A G62U A64G C71U | < 1e-05 | – | < 1e-05 | –
31 | C34U C67U | < 1e-05 | < 1e-05 | – | –
32 | C34U C67A | < 1e-05 | < 1e-05 | – | –
33 | A36U G51C | < 1e-05 | – | < 1e-05 | < 1e-05
34 | G35A G41C U69A | < 1e-05 | < 1e-05 | < 1e-05 | –
35 | C34U G63A G66U | < 1e-05 | – | < 1e-05 | –
36 | C34G A36C G38U A64C | < 1e-05 | – | – | –
37 | G35A G62C | < 1e-05 | < 1e-05 | < 1e-05 | –
38 | G35A G62U | < 1e-05 | < 1e-05 | – | < 1e-05
39 | G35A C58G | < 1e-05 | < 1e-05 | – | –
40 | G35C G60U G62C | < 1e-05 | – | < 1e-05 | –
41 | A33C U56C | < 1e-05 | < 1e-05 | < 1e-05 | < 1e-05
42 | C34A A64C C68U | < 1e-05 | < 1e-05 | < 1e-05 | –
43 | G35A G41U A48G | < 1e-05 | < 1e-05 | – | –
44 | A36G A48G | < 1e-05 | < 1e-05 | < 1e-05 | < 1e-05
45 | G35C C50A G51U A52C | < 1e-05 | – | < 1e-05 | –
46 | C34A A42U | < 1e-05 | < 1e-05 | < 1e-05 | < 1e-05
47 | C34G U56C | < 1e-05 | – | – | –
48 | A36G A64U C71U | < 1e-05 | < 1e-05 | < 1e-05 | –
49 | C34G U47A | < 1e-05 | < 1e-05 | < 1e-05 | –
50 | C34U G43U C50A G51U U55G | < 1e-05 | – | – | –
51 | G35U A42C | < 1e-05 | < 1e-05 | < 1e-05 | –
52 | C34U U56C | < 1e-05 | < 1e-05 | < 1e-05 | < 1e-05

Row | Variant | self-cleavage kobs at 160 uM GlcN6P (glucosamine-6-phosphate [1]) [s⁻¹] | self-cleavage kobs at 2500 uM GlcN6P (glucosamine-6-phosphate [2]) [s⁻¹] | self-cleavage kobs at 640 uM GlcN6P (glucosamine-6-phosphate [3]) [s⁻¹] | self-cleavage kobs at 10000 uM GlcN6P (glucosamine-6-phosphate [4]) [s⁻¹]
53 | C34U U56G | < 1e-05 | < 1e-05 | – | –
54 | A33G A39U A64U C70G | < 1e-05 | < 1e-05 | – | –
55 | C34U U45C U65A | < 1e-05 | – | < 1e-05 | –
56 | G35C G62U | < 1e-05 | < 1e-05 | < 1e-05 | < 1e-05
57 | A36C G38C U56C | < 1e-05 | < 1e-05 | – | –
58 | A33U U65G | < 1e-05 | – | < 1e-05 | –
59 | A36U U49G A52C | < 1e-05 | – | – | –
60 | G35U G51A | < 1e-05 | – | < 1e-05 | < 1e-05
61 | G35U A39U | < 1e-05 | < 1e-05 | < 1e-05 | –
62 | A36U A48G | < 1e-05 | – | < 1e-05 | < 1e-05
63 | A33U G41U A52U | < 1e-05 | < 1e-05 | < 1e-05 | –
64 | A33G C34A U55A C70A | 0.00034 ± 0.00013 | – | 9.12e-05 ± 3.4e-05 | –
65 | C34A A36G A39U A48C | < 1e-05 | < 1e-05 | – | –
66 | G35U A53U G60U | < 1e-05 | – | < 1e-05 | –
67 | A33U G38A A48G G66U U69G | 4.81e-05 ± 1.6e-05 | – | 0.000108 ± 2.9e-05 | –
68 | A33U G35A | < 1e-05 | < 1e-05 | < 1e-05 | –
69 | G35A U49A C67G C68G | 0.000246 ± 7.8e-05 | 0.000118 ± 3.7e-05 | 9.7e-05 ± 2.3e-05 | –
70 | A33C G51U | < 1e-05 | – | < 1e-05 | < 1e-05
71 | A36U G63C C67U | < 1e-05 | < 1e-05 | < 1e-05 | –
72 | G37A C50A C61G | < 1e-05 | – | < 1e-05 | –
73 | G35U C61U | < 1e-05 | < 1e-05 | < 1e-05 | –
74 | A33U C50U G62C | < 1e-05 | < 1e-05 | < 1e-05 | –
75 | G35U A42C U55C | < 1e-05 | – | < 1e-05 | –
76 | A36C U49A C70U | 4.96e-05 ± 2e-05 | – | – | –
77 | G35A U55C C70A | < 1e-05 | – | < 1e-05 | –
78 | A33G A42U G59U | < 1e-05 | – | – | –

Row | Variant | self-cleavage kobs at 160 uM GlcN6P (glucosamine-6-phosphate [1]) [s⁻¹] | self-cleavage kobs at 2500 uM GlcN6P (glucosamine-6-phosphate [2]) [s⁻¹] | self-cleavage kobs at 640 uM GlcN6P (glucosamine-6-phosphate [3]) [s⁻¹] | self-cleavage kobs at 10000 uM GlcN6P (glucosamine-6-phosphate [4]) [s⁻¹]
79 | A36C G41A G66U | < 1e-05 | < 1e-05 | – | –
80 | A36G G38C A42U G62A C67U C68A U69G | < 1e-05 | – | – | –
81 | G35U G41A A48G C58G | < 1e-05 | – | – | –
82 | G35U C71U | < 1e-05 | < 1e-05 | < 1e-05 | < 1e-05
83 | A36U A42U | < 1e-05 | < 1e-05 | < 1e-05 | < 1e-05
84 | G35C G60A C68A | < 1e-05 | – | < 1e-05 | –
85 | A33C G44U | < 1e-05 | < 1e-05 | < 1e-05 | < 1e-05
86 | C34G G40U G41A C58U | < 1e-05 | – | < 1e-05 | –
87 | G35U C67A | < 1e-05 | < 1e-05 | < 1e-05 | –
88 | C34U G35U A39C G63A C67U | < 1e-05 | – | – | –
89 | G35C G40C A52C | < 1e-05 | < 1e-05 | < 1e-05 | –
90 | C34A G35C | < 1e-05 | < 1e-05 | – | –
91 | A36C U45C | < 1e-05 | < 1e-05 | < 1e-05 | –
92 | G37A C50G C71A | 0.000356 ± 0.00012 | 6.17e-05 ± 2.4e-05 | 0.000114 ± 3.6e-05 | –
93 | A36U U46A | < 1e-05 | < 1e-05 | < 1e-05 | < 1e-05
94 | A36U U57G | < 1e-05 | < 1e-05 | – | < 1e-05
95 | C34U C71U | < 1e-05 | < 1e-05 | < 1e-05 | < 1e-05
96 | G35C C67G | < 1e-05 | < 1e-05 | < 1e-05 | –
97 | G35C U69G | < 1e-05 | < 1e-05 | – | –
98 | A36U U45A | < 1e-05 | – | < 1e-05 | –
99 | A36U G40U | < 1e-05 | – | < 1e-05 | < 1e-05
100 | G35U U49G | < 1e-05 | < 1e-05 | < 1e-05 | < 1e-05
101 | A36C A39G C68U | < 1e-05 | – | < 1e-05 | –
102 | A33U C68A C70G | < 1e-05 | < 1e-05 | – | –
103 | G35U U45G U46G A64G | < 1e-05 | < 1e-05 | < 1e-05 | –
